In the MegaScale stability set (Tsuboyama et al. 2023):

B1: 6NMW (parent)
chain: QGDIVVALYPYDGIHPDDLSFKKGEKMKVLEEHGEWWKAKSLLTKKEGFIPSNYVAKLN

Variants of: B1
Experiment: folding stability dG (cDNA display proteolysis); higher = more stable
Conditions: PBS, room temperature

Folding stability dG [kcal/mol]: each site, then its substitutions
Y9: L 3.06, C 4.44, S 1.95, H 2.81, D 1.08, M 3.43, F 3.72, T 1.87, N 1.61, I 2.72, R 4.07, V 2.5, G 1.46, Q 3.15, W 3.66, K 3.61, A 2.74, E 2.37
S20: A 2.64, Q 2.27, G 2.01, E 1.75, Y 1.22, H 2.03, C 2.77, L 1.15, I 2.09, T 3.13, V 2.33, R 2.23, N 2.01, K 2.48, F 1.18, D 1.82, P 2.81, W 1.65, M 1.88
P16: R 2.87, G 2.75, V 3.11, Y 2.59, S 2.98, M 2.81, A 3.29, Q 3.08, D 3.22, C 3.56, I 3, L 2.7, W 2.79, N 2.68, T 2.87, K 3.4, H 2.92, F 2.73
E25: T 0.615, C 1.3, N 0.344, Q 0.918, S 0.621, G -0.389, L -0.25, Y 0.16, F -0.064, H 0.959, D 2.36, A 1.21, M 0.74, V -0.121, W 1.22, R 0.331, I -0.618
Y11: L 0.851, A -0.375, C 1.5, F 3.93, V 0.147, E -0.944, K 0.796, S 0.369, H 1.71, I 0.264, N 0.567, W 4.27, M 0.669, R 2.25, Q -0.356
L19: V 0.435, M 2.12, D -0.824, Y 0.613, C 0.728, F 1.02, S -0.898, W 0.23, R -0.083, T 0.168, N -0.23, I 1.46, P -0.243, A -0.055
H15: A 3.22, P 3.63, C 4.24, F 3.5, M 2.85, V 1.77, I 1.63, N 3.65, G 3.99, K 3.48, Y 3.75, S 3.26, Q 3.03, R 3.93, D 2.54, L 2.87, W 3.39, E 2.54
D12: I 4.38, H 4.08, N 3.98, R 4.19, A 3.85, G 2.7, Q 4.13, C 4.27, Y 3.86, M 3.84, W 3.78, F 3.95, T 4.32, S 3.78, V 4.41, P 3.14, L 3.69, K 4.34
K23: V 3.39, G 1.64, W 2.06, S 2.34, F 2.42, P 2.02, T 2.75, C 3.59, Q 3.22, R 3.33, H 1.85, E 2.88, L 2.79, I 2.95, A 3.39, N 1.18, M 2.89, D 1.3, Y 2.51
V6: Y 3.49, Q 2.01, N 0.282, M 2.59, R 1.9, T 2.18, S 1.15, W 2.05
I14: E 2.98, F 2.99, V 3.97, N 3.02, A 3.22, K 3.81, Q 3.67, M 3.36, D 2.68, T 3.68, S 3.09, W 2.68, G 2.9, C 4.14, Y 3.08, L 3.51, H 3.13, P 2.57
D18: F 4.07, L 2.84, Y 4.04, Q 4.95, W 3.29, V 3.08, G 3.33, T 3.97, P 0.221, R 3.15, M 3.67, A 3.61, N 2.88, E 4.6, S 3.94, I 2.69, H 4.91, K 3.08, C 4.07
A7: L -0.675, F -0.602, G 2.64, Y -0.494, C 1.42, M 0.441, E 0.11, T 1.07, I -0.263, V 0.268, S 1.39
L8: I 3.04, Y 1.02, M 2.78, C 3.47, F 1.24, W 1.21, D -0.146, H 1.06, V 2.29, N 1.23, S 0.987, Q 1.62, E 0.697, T 1.24, A 0.801, K 2.3, G 0.062, R 1.94
K26: F 4.75, A 2.78, E 2.52, C 4.34, D 0.255, G 1.11
G24: T 0.282, D 2.1, C 3.62, L 1.02, M 1.07, A 1.25, K 0.476, F 2.13, W 2.51, S 1.3, E 1.16, R 0.941, N 2.19, Y 2.25, Q 0.576, H 2.15
G13: I 0.929, P 2.3, C 1.96, R 2.26, Q 2.01, T 1.74, N 1.32, E 1.2, S 3.39, Y 0.268, H 0.829, K 2.6, F 0.38, W 0.736, V 1.14, D 0.145, L 0.825, M 1.91
P10: L 2.23, V 2.27, R 4.08, C 3.89, S 4.61, Q 3.77, E 3.31, T 4.18, M 2.75, W 2.74, I 1.94, G 3.56, Y 2.66, H 3.93, N 4.84, F 2.47, K 3.78, A 4.23
K22: V 3.82, I 3.84, W 1.45, H 2.66, P 0.747, T 3.15, C 3.28, Q 3.49, F 2.5, M 3.46, S 3.08, D 2.71, Y 2.29, A 3.17, N 2.67, E 3.06, R 3.65, L 3.21, G 2.74
F21: I 0.968, C 0.758, V 1.74, Q -0.217, Y -0.495, L -0.236, W -0.416, M 1.22
D17: W 4.86, E 3.72, H 3.78, P 2.35, N 3.83, S 3.63, K 3.5, M 3.47, Q 3.88, A 3.37, C 4.33, I 2.2, G 4.77, T 3.68, V 2.23, R 4.21, Y 3.92, L 3.6, F 3.71
